Numbering of substitutions follows the chain as printed. Names may count otherwise. One block for each binder: values may come before it.
Molecular target: T1, CD3ε homodimer protein (human, UniProt P07766 23-126, limits assumed, sulfo-tag or biotin label in some ECL assays)
T1 construct: also called human CD3ε homodimer protein; CD3 (CD3ε)
Assay: SPR, CD3ε homodimer on chip;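 note: biacore SPR with antibody variants flowed as analyte over amine-coupled CD3ε homodimer on a CM chip, bound amount of each single-residue H chain variant over that of parent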

T1 sequence (P07766 23-126 limits assumed): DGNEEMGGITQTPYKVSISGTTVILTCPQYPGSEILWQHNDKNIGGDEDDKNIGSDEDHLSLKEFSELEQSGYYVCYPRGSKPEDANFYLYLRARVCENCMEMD

- ratio of amounts bound vs CE115HA000: 0.12
B1: CE115HA000 H96P (antibody, name in Kabat numbering, V domains shown)
VH: QVQLVESGGGVVQPGRSLRLSCAASGFTFSNAWMHWVRQAPGKGLEWVAQIKAKSNNYATYYAESVKGRFTISRDDSKNSLYLQMNSLKTEDTAVYYCRYVPYGAYYGVDAWGQGTTVTVSS
VL: DIVMTQSPLSLPVTPGEPASISCRSSQSLVHSNRNTYLHWYQQKPGQAPRLLIYKVSNRFSGVPDRFSGSGSGTDFTLKISRVEAEDVGVYYCGQGTQVPYTFGQGTKLEIK

- ratio of amounts bound vs CE115HA000: 1.14
B2: CE115HA000 N31R (antibody, name in Kabat numbering, V domains shown)
VH: B1 VH with N31R, P102H
VL: B1 VL

- ratio of amounts bound vs CE115HA000: 0.81
B3: CE115HA000 N31S (antibody, name in Kabat numbering, V domains shown)
VH: B1 VH with N31S, P102H
VL: B1 VL

- ratio of amounts bound vs CE115HA000: 0.34
B4: CE115HA000 K52N (antibody, name in Kabat numbering, V domains shown)
VH: B1 VH with K52N, P102H
VL: B1 VL

- ratio of amounts bound vs CE115HA000: 0.67
B5: CE115HA000 K52bA (antibody, name in Kabat numbering, V domains shown)
VH: B1 VH with K54A, P102H
VL: B1 VL

- ratio of amounts bound vs CE115HA000: 0.92
B6: CE115HA000 K52R (antibody, name in Kabat numbering, V domains shown)
VH: B1 VH with K52R, P102H
VL: B1 VL

- ratio of amounts bound vs CE115HA000: 0.7
B7: CE115HA000 N53A (antibody, name in Kabat numbering, V domains shown)
VH: B1 VH with N56A, P102H
VL: B1 VL

- ratio of amounts bound vs CE115HA000: 0.32
B8: CE115HA000 K64A (antibody, name in Kabat numbering, V domains shown)
VH: B1 VH with K67A, P102H
VL: B1 VL

- ratio of amounts bound vs CE115HA000: 0.39
B9: CE115HA000 N31G (antibody, name in Kabat numbering, V domains shown)
VH: B1 VH with N31G, P102H
VL: B1 VL

- ratio of amounts bound vs CE115HA000: 0.64
B10: CE115HA000 N31Y (antibody, name in Kabat numbering, V domains shown)
VH: B1 VH with N31Y, P102H
VL: B1 VL

- ratio of amounts bound vs CE115HA000: 0.89
B11: CE115HA000 K64Q (antibody, name in Kabat numbering, V domains shown)
VH: B1 VH with K67Q, P102H
VL: B1 VL

- ratio of amounts bound vs CE115HA000: 0.74
B12: CE115HA000 K52bY (antibody, name in Kabat numbering, V domains shown)
VH: B1 VH with K54Y, P102H
VL: B1 VL

- ratio of amounts bound vs CE115HA000: 0.37
B13: CE115HA000 N31D (antibody, name in Kabat numbering, V domains shown)
VH: B1 VH with N31D, P102H
VL: B1 VL

- ratio of amounts bound vs CE115HA000: 0.42
B14: CE115HA000 H96Q (antibody, name in Kabat numbering, V domains shown)
VH: B1 VH with P102Q
VL: B1 VL

- ratio of amounts bound vs CE115HA000: 0.26
B15: CE115HA000 K52E (antibody, name in Kabat numbering, V domains shown)
VH: B1 VH with K52E, P102H
VL: B1 VL

- ratio of amounts bound vs CE115HA000: 0.84
B16: CE115HA000 K64S (antibody, name in Kabat numbering, V domains shown)
VH: B1 VH with K67S, P102H
VL: B1 VL

- ratio of amounts bound vs CE115HA000: 0.62
B17: CE115HA000 N31F (antibody, name in Kabat numbering, V domains shown)
VH: B1 VH with N31F, P102H
VL: B1 VL

- ratio of amounts bound vs CE115HA000: 0.99
B18: CE115HA000 K43Q (antibody, name in Kabat numbering, V domains shown)
VH: B1 VH with K43Q, P102H
VL: B1 VL

- ratio of amounts bound vs CE115HA000: 0.68
B19: CE115HA000 K52bS (antibody, name in Kabat numbering, V domains shown)
VH: B1 VH with K54S, P102H
VL: B1 VL

- ratio of amounts bound vs CE115HA000: 0.81
B20: CE115HA000 N31I (antibody, name in Kabat numbering, V domains shown)
VH: B1 VH with N31I, P102H
VL: B1 VL

- ratio of amounts bound vs CE115HA000: 0.63
B21: CE115HA000 N31W (antibody, name in Kabat numbering, V domains shown)
VH: B1 VH with N31W, P102H
VL: B1 VL

- ratio of amounts bound vs CE115HA000: 0.72
B22: CE115HA000 K64D (antibody, name in Kabat numbering, V domains shown)
VH: B1 VH with K67D, P102H
VL: B1 VL

- ratio of amounts bound vs CE115HA000: 0.9
B23: CE115HA000 K43E (antibody, name in Kabat numbering, V domains shown)
VH: B1 VH with K43E, P102H
VL: B1 VL

- ratio of amounts bound vs CE115HA000: 0.6
B24: CE115HA000 K52bQ (antibody, name in Kabat numbering, V domains shown)
VH: B1 VH with K54Q, P102H
VL: B1 VL

- ratio of amounts bound vs CE115HA000: 0.5
B25: CE115HA000 N31A (antibody, name in Kabat numbering, V domains shown)
VH: B1 VH with N31A, P102H
VL: B1 VL

- ratio of amounts bound vs CE115HA000: 0.49
B26: CE115HA000 N31Q (antibody, name in Kabat numbering, V domains shown)
VH: B1 VH with N31Q, P102H
VL: B1 VL

- ratio of amounts bound vs CE115HA000: 0.74
B27: CE115HA000 K64E (antibody, name in Kabat numbering, V domains shown)
VH: B1 VH with K67E, P102H
VL: B1 VL

- ratio of amounts bound vs CE115HA000: 0.33
B28: CE115HA000 K52I (antibody, name in Kabat numbering, V domains shown)
VH: B1 VH with K52I, P102H
VL: B1 VL

- ratio of amounts bound vs CE115HA000: 0.28
B29: CE115HA000 K52S (antibody, name in Kabat numbering, V domains shown)
VH: B1 VH with K52S, P102H
VL: B1 VL

- ratio of amounts bound vs CE115HA000: 1.01
B30: CE115HA000 N31K (antibody, name in Kabat numbering, V domains shown)
VH: B1 VH with N31K, P102H
VL: B1 VL

- ratio of amounts bound vs CE115HA000: 0.27
B31: CE115HA000 K52bN (antibody, name in Kabat numbering, V domains shown)
VH: B1 VH with K54N, P102H
VL: B1 VL

- ratio of amounts bound vs CE115HA000: 0.68
B32: CE115HA000 N31H (antibody, name in Kabat numbering, V domains shown)
VH: B1 VH with N31H, P102H
VL: B1 VL

- ratio of amounts bound vs CE115HA000: 9.34
B33: CE115HA000 K75T (antibody, name in Kabat numbering, V domains shown)
VH: B1 VH with K78T, P102H
VL: B1 VL

- ratio of amounts bound vs CE115HA000: 0.22
B34: CE115HA000 K52W (antibody, name in Kabat numbering, V domains shown)
VH: B1 VH with K52W, P102H
VL: B1 VL

- ratio of amounts bound vs CE115HA000: 0.29
B35: CE115HA000 I51D (antibody, name in Kabat numbering, V domains shown)
VH: B1 VH with I51D, P102H
VL: B1 VL

- ratio of amounts bound vs CE115HA000: 0.22
B36: CE115HA000 K52H (antibody, name in Kabat numbering, V domains shown)
VH: B1 VH with K52H, P102H
VL: B1 VL

- ratio of amounts bound vs CE115HA000: 0.25
B37: CE115HA000 K52D (antibody, name in Kabat numbering, V domains shown)
VH: B1 VH with K52D, P102H
VL: B1 VL

- ratio of amounts bound vs CE115HA000: 1.34
B38: CE115HA000 L78I (antibody, name in Kabat numbering, V domains shown)
VH: B1 VH with L81I, P102H
VL: B1 VL

- ratio of amounts bound vs CE115HA000: 1.11
B39: CE115HA000 K52bR (antibody, name in Kabat numbering, V domains shown)
VH: B1 VH with K54R, P102H
VL: B1 VL

- ratio of amounts bound vs CE115HA000: 0.17
B40: CE115HA000 H96Y (antibody, name in Kabat numbering, V domains shown)
VH: B1 VH with P102Y
VL: B1 VL

- ratio of amounts bound vs CE115HA000: 0.27
B41: CE115HA000 K52bD (antibody, name in Kabat numbering, V domains shown)
VH: B1 VH with K54D, P102H
VL: B1 VL

- ratio of amounts bound vs CE115HA000: 0.18
B42: CE115HA000 K52Y (antibody, name in Kabat numbering, V domains shown)
VH: B1 VH with K52Y, P102H
VL: B1 VL

- ratio of amounts bound vs CE115HA000: 0.61
B43: CE115HA000 K52bL (antibody, name in Kabat numbering, V domains shown)
VH: B1 VH with K54L, P102H
VL: B1 VL

- ratio of amounts bound vs CE115HA000: 0.17
B44: CE115HA000 K52F (antibody, name in Kabat numbering, V domains shown)
VH: B1 VH with K52F, P102H
VL: B1 VL

- ratio of amounts bound vs CE115HA000: 0.55
B45: CE115HA000 I51E (antibody, name in Kabat numbering, V domains shown)
VH: B1 VH with I51E, P102H
VL: B1 VL

— patent US20220040297A1 (Chugai, published 2022)
